Assay results taken from patent publication US20210220450A1, “TREATMENT OF AN IOP CONDITION” (The Research Foundation for The State University of New York, priority 2013, published 2021).

Legend:
[1] = target: N-methyl-D-aspartate receptor (NMDAR); assay: cell-based or functional assay
[2] = target: low-density-lipoprotein receptor-related protein 1 (LRP-1) (UniProt Q07954); assay: cell-based or functional assay
UniProt Q07954, sequence (Q07954 20-4544 limits assumed): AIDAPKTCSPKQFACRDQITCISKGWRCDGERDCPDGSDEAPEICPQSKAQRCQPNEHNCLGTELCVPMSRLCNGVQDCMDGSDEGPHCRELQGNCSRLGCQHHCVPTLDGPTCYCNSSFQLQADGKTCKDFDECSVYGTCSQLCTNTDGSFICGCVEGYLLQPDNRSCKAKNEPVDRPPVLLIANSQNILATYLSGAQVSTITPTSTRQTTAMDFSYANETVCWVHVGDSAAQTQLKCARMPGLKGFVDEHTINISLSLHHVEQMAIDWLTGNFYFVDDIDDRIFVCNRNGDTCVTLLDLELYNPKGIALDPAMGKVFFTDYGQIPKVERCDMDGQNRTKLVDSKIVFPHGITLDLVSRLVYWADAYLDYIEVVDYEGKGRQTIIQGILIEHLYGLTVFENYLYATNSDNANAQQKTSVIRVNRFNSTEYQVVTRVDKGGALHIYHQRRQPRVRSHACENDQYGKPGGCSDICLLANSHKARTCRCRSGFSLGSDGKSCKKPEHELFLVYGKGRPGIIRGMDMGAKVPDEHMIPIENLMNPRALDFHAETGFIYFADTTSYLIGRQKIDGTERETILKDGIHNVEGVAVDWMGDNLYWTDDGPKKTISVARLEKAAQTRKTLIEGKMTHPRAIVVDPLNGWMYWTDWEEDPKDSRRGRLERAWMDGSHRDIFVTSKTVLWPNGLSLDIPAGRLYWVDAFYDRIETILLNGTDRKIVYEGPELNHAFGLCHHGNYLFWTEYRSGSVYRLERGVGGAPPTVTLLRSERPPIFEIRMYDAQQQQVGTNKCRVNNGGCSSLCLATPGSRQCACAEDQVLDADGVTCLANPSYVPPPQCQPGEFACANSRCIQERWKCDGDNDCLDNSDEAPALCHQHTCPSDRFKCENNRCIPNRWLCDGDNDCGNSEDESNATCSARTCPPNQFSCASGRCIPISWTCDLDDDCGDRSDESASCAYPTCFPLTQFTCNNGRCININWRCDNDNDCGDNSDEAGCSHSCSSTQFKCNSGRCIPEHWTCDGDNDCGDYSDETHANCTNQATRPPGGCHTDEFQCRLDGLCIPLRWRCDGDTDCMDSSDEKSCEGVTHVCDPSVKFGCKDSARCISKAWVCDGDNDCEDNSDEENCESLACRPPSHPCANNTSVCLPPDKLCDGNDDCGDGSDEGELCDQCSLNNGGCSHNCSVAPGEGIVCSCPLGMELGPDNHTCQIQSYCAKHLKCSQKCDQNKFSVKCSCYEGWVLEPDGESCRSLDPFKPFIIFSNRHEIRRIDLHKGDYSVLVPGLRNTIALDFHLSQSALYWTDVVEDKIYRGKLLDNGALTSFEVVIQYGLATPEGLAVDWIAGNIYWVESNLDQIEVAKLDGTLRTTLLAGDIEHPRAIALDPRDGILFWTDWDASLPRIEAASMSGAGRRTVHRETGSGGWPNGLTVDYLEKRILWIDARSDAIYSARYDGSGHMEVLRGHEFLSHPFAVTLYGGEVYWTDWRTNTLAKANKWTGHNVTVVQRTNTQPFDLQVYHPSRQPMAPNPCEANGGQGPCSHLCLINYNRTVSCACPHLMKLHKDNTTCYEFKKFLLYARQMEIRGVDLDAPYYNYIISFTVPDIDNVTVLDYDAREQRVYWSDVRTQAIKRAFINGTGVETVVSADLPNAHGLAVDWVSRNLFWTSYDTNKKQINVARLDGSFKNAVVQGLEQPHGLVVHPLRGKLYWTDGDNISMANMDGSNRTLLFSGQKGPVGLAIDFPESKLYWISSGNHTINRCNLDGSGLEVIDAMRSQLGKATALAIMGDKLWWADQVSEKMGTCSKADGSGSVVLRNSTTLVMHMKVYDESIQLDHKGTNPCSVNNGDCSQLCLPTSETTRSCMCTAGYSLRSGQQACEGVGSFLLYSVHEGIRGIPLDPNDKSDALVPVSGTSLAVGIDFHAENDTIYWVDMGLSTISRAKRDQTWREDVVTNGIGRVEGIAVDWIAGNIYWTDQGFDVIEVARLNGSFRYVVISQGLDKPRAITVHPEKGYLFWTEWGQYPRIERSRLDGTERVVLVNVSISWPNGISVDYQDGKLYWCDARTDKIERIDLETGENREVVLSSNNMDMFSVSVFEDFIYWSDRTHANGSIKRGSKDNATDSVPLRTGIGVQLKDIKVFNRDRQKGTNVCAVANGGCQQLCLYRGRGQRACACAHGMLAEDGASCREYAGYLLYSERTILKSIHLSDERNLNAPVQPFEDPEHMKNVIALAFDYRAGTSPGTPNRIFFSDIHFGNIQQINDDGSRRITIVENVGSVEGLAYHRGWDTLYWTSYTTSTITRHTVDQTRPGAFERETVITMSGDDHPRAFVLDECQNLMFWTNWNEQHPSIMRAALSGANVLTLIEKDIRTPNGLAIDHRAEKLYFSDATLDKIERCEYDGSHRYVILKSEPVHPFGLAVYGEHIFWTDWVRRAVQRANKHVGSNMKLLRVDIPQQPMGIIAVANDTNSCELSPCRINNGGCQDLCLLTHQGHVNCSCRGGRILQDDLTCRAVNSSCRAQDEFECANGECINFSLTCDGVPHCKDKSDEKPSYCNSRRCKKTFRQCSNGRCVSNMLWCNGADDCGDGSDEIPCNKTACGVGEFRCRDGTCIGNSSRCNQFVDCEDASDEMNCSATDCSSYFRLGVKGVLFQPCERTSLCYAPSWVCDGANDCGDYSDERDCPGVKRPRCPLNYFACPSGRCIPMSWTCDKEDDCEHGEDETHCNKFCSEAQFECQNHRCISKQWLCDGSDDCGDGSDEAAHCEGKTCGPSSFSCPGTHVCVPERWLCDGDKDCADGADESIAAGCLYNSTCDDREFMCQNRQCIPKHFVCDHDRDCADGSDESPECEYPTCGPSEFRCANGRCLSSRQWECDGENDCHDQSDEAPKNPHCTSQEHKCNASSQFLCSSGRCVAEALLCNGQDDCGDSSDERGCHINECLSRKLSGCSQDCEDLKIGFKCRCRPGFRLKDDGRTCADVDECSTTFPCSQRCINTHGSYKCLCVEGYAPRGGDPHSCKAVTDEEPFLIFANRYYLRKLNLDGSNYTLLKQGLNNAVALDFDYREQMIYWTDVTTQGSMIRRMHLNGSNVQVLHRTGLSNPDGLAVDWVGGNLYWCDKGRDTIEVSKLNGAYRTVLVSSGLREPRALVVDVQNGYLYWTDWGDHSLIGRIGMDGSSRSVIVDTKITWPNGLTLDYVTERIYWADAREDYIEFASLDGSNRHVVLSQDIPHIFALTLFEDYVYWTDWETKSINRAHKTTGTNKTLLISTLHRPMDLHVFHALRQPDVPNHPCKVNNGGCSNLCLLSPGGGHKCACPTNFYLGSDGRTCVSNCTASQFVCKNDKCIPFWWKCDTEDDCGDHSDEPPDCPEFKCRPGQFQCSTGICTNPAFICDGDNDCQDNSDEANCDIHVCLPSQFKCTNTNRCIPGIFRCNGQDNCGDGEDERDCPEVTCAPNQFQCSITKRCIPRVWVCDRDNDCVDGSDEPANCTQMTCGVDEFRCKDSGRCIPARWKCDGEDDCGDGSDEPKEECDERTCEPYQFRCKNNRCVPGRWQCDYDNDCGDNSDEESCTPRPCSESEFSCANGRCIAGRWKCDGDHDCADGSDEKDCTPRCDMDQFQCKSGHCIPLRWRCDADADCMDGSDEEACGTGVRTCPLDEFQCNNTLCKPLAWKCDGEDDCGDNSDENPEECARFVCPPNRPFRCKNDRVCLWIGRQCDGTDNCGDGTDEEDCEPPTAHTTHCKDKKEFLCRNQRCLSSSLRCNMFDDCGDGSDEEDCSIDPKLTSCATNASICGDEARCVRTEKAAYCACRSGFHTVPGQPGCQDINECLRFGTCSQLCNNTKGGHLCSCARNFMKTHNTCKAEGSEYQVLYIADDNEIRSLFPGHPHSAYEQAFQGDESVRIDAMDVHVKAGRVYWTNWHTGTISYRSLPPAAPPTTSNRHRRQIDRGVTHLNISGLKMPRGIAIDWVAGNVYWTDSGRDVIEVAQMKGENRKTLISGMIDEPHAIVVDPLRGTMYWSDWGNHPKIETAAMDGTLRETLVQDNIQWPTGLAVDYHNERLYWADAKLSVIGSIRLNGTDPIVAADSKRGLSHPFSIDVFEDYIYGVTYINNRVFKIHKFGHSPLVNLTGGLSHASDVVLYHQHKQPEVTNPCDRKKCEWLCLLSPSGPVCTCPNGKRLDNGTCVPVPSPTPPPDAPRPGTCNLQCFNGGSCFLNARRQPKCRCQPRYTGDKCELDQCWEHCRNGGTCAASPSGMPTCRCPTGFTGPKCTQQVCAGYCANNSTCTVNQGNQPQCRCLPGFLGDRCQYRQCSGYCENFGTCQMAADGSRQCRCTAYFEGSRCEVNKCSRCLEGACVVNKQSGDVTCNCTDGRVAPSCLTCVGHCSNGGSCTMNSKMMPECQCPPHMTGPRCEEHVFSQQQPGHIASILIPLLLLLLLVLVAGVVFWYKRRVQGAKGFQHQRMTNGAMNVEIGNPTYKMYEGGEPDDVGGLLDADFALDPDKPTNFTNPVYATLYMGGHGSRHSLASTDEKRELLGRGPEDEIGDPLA

Substance: non-enzymatically active tPA (NE-tPA/S478A-tPA) (from UniProt P00750 36-562)
- Simulated outflow facility of HTM cells in ACOS, PA+NE-tPA (no inhibitor) (µl/min/mmHg/mm^2) [1]: 0.55
- Simulated outflow facility of HTM cells in ACOS, PA+NE-tPA+MK-801 (inhibitor of NMDA receptor) (µl/min/mmHg/mm^2) [1]: 0.29
- Simulated outflow facility of HTM cells in ACOS, PA+NE-tPA+MK-801+RAP (both inhibitors) (µl/min/mmHg/mm^2) [1]: 0.33
- Simulated outflow facility of HTM cells in ACOS, PA+NE-tPA (no inhibitor) (µl/min/mmHg/mm^2) [2]: 0.55
- Simulated outflow facility of HTM cells in ACOS, PA+NE-tPA+MK-801+RAP (both inhibitors) (µl/min/mmHg/mm^2) [2]: 0.33
- Simulated outflow facility of HTM cells in ACOS, PA+NE-tPA+RAP (inhibitor of LRP1) (µl/min/mmHg/mm^2) [2]: 0.27
